Kd and stoichiometry N data for two substances are collected here from article PMC3734851.

Test [1] concerns the target αβ-tubulin (unpolymerized, as used in gel filtration and analytical ultracentrifugation) (yeast) (UniProt P09733).
For test [2] the target is unchanged. The test can be described thus: AUC.
For test [3], the target named is TOG1-TOG2 of Stu2p (yeast). Nature of the test: AUC.
For test [4], the target named is TOG1-TOG2 of Stu2p (yeast). Nature of the test: AUC. The source holds these as a separate data set.

Several values for one entry are separate records, joined by “and”; a condition that tells them apart may be missing. Equal entries are not always repeated. Where two headings read alike, the source gives them in different places.

What is called Kd is a measure of binding affinity in units of concentration. Broadly, the stoichiometry N is a count of units in the complex or per binding partner.

On to “TOG2 domain of Stu2p (domain or fragment)”, for which, in test [1], the Kd fell in the range of 200 to 300 nM. The stoichiometry N in test [2] was 1.
On to “αβ-tubulin (unpolymerized, as used in gel filtration and analytical ultracentrifugation) (from UniProt P09733 1-447; P02557 1-457) (complex)”, for which the stoichiometry N is 1 in test [3]; 1 and 2 in test [4].
